Like-named read-outs stand apart in the source and are kept apart here.

Data set [1] deals with the molecule itself. As to the kind of experiment: cryo-EM structure.
Data set [2] concerns the molecule itself. Briefly: cryo-EM structure. The source holds these as a separate data set.

B1: InvG (natural protein)
chain: SEKIPVTGSGFVAKDDSLRTFFDAMALQLKEPVIVSKMAARKKITGNFEFHDPNALLEKLSLQLGLIWYFDGQAIYIYDASEMRNAVVSLRNVSLNEFNNFLKRSGLYNKNYPLRGDNRKGTFYVSGPPVYVDMVVNAATMMDKQNDGIELGRQKIGVMRLNNTFVGDRTYNLRDQKMVIPGIATAIERLLQGEEQPLGNIVSSEPPAMPAFSANGEKGKAANYAGGMSLQEALKQNAAAGNIKIVAYPDTNSLLVKGTAEQVHFIEMLVKALDVAKRHVELSLWIVDLNKSDLERLGTSWSGSITIGDKLGVSLNQSSISTLDGSRFIAAVNALEEKKQATVVSRPVLLTQENVPAIFDNNRTFYTKLIGERNVALEHVTYGTMIRVLPRFSADGQIEMSLDIEDGNDKTPQSDTTTSVDALPEVGRTLISTIARVPHGKSLLVGGYTRDANTDTVQSIPFLGKLPLIGSLFRYSSKNKSNVVRVFMIEPKEIVDPLTPDASESVNNILKQSGAWSGDDKLQKWVRVYLDRGQEAIK
As for B1, the “stoichiometry N” value in the data set “cryo-EM structure [1]” amounted to 16; in the data set “cryo-EM structure [2]”, 15.

B2: SpaQ (natural protein)
chain: MDDLVFAGNKALYLVLILSGWPTIVATIIGLLVGLFQTVTQLQEQTLPFGIKLLGVCLCLFLLSGWYGEVLLSYGRQVIFLALAKG
B2: in the data set “cryo-EM structure [1]”, the “stoichiometry N” value is 4.

B3: SpaP (natural protein)
chain: MGNDISLIALLAFSTLLPFIIASGTCFVKFSIVFVMVRNALGLQQIPSNMTLNGVALLLSMFVMWPIMHDAYVYFEDEDVTFNDISSLSKHVDEGLDGYRDYLIKYSDRELVQFFENAQLKRQYGEETETVKRDKDEIEKPSIFALLPAYALSEIKSAFKIGFYLYLPFVVVDLVVSSVLLALGMMMMSPVTISTPIKLVLFVALDGWTLLSKGLILQYMDIAT
B3: the “stoichiometry N” value in the data set “cryo-EM structure [1]” amounted to 5.

B4: PrgK (natural protein)
chain: CKDKDLLKGLDQEQANEVIAVLQMHNIEANKIDSGKLGYSITVAEPDFTAAVYWIKTYQLPPRPRVEIAQMFPADSLVSSPRAEKARLYSAIEQRLEQSLQTMEGVLSARVHISYDIDAGENGRPPKPVHLSALAVYERGSPLAHQISDIKRFLKNSFADVDYDNISVVLSERSDAQLQAPGTPVKRNSFATSWIVLIILLSVMSAGFGVWYYKNHYARNKKGITADDKAKSSNE
Consider B4, for which the “stoichiometry N” value in the data set “cryo-EM structure [1]” came out at 24; in the data set “cryo-EM structure [2]” it was 23.

B5: PrgH (natural protein)
chain: METSKEKTITSPGPYIVRLLNSSLNGCEFPLLTGRTLFVVGQSDALTASGQLPDIPADSFFIPLDHGGVNFEIQVDTDATEIILHELKEGNSESRSVQLNTPIQVGELLILIRPESEPWVPEQPEKLETSAKKNEPRFKNGIVAALAGFFILGIGTVGTLWILNSPQRQAAELDSLLGQEKERFQVLPGRDKMLYVAAQNERDTLWARQVLARGDYDKNARVINENEENKRISIWLDTYYPQLAYYRIHFDEPRKPVFWLSRQRNTMSKKELEVLSQKLRALMPYADSVNITLMDDVTAAGQAEAGLKQQALPYSRRNHKGGVTFVIQGALDDVEILRARQFVDSYYRTWGGRYVQFAIELKDDWLKGRSFQYGAEGYIKMSPGHWYFPSPL
For the protein B5, the entries for the “stoichiometry N” value in “cryo-EM structure [1]” and in the data set “cryo-EM structure [2]” were 24 and 23, respectively.

For orientation: stoichiometry N means the number of molecules, sites or subunits per partner or assembly.

The values above are taken from article doi:10.1101/714097 (bioRxiv, 2019).
